The numbers were not newly measured in publication PMC2702134, which cites them from elsewhere.

The target of the series is Glu50 (UniProt position 50, LEWIGEINPDS).

The pKa is the negative logarithm of the acid dissociation constant. Consider “Catalytic antibody 34E4 (Kemp eliminase)”, for which the pKa is on record as 6.4.
